In article PMC4201290, “Wilms tumor protein recognizes 5-carboxylcytosine within a specific DNA sequence”:

B1: crystal oligo Egr1 5fC/5fC (dsDNA)
DNA 1: AGCGTGGGCGT
DNA 2: TACGCCCACGC
modifications: 5fC in both strands of the 3' GCG
B2: crystal oligo Egr1 5mC/5mC (dsDNA)
DNA 1: AGCGTGGGCGT
DNA 2: TACGCCCACGC
modifications: 5mC in both strands of the 3' GCG
B3: crystal oligo Egr1 5hmC/5hmC (dsDNA)
DNA 1: AGCGTGGGCGT
DNA 2: TACGCCCACGC
modifications: 5hmC in both strands of the 3' GCG

target: Egr1/Zif268 ZnF1-3 (Homo sapiens, UniProt P18146); assay: X-ray crystallography; Zn2+; FP: 5 nM FAM-dsDNA, 300 mM NaCl (200 mM in Fig 4E), 20 mM Tris-HCl pH 7.5, 5% glycerol, 0.5 mM TCEP, 25 C, 10 min

Binding result, binds:
B1, B2, B3
